The target in this test is T1, recombinant αvβ8 ectodomain (UniProt P06756 31-992; P26012 43-684, limits assumed).
T1 construct: extracellular domain; the ELISA and TMLC assays say only 'recombinant αvβ8'; also called immobilized αvβ8; integrin αvβ8
Kind of test: scFv KD; method not stated (yeast-displayed scFv library was sorted with recombinant αvβ8 ectodomain).

As a reminder, the Kd is the constant that tells how readily two partners part at equilibrium.

T1 sequence (P06756 31-992 limits assumed, chain 1 of 2): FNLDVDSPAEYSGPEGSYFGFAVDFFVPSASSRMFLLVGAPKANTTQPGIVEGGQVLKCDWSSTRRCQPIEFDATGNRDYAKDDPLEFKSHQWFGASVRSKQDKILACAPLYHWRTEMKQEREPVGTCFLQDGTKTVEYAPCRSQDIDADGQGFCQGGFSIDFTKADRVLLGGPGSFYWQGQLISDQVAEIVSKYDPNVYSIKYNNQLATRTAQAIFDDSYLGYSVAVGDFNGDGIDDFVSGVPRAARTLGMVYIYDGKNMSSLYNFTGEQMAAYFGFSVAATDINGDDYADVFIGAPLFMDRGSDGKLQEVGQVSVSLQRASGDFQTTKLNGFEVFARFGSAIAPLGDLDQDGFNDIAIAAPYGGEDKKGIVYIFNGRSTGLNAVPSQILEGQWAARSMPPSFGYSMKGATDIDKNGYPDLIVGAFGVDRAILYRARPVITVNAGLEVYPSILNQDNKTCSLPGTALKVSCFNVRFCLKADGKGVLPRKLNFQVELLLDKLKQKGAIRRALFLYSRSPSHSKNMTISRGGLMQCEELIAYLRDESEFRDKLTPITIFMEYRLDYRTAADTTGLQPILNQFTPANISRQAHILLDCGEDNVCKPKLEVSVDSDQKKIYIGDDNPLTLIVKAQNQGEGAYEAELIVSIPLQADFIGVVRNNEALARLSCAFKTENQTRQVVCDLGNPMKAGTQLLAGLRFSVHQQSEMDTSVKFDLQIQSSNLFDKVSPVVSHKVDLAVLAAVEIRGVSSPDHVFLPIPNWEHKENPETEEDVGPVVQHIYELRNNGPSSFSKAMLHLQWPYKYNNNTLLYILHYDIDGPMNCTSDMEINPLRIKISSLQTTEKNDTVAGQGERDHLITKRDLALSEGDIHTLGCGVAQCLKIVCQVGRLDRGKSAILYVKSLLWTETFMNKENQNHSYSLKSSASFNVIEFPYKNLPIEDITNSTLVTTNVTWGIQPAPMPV
T1 sequence (P26012 43-684 limits assumed, chain 2 of 2): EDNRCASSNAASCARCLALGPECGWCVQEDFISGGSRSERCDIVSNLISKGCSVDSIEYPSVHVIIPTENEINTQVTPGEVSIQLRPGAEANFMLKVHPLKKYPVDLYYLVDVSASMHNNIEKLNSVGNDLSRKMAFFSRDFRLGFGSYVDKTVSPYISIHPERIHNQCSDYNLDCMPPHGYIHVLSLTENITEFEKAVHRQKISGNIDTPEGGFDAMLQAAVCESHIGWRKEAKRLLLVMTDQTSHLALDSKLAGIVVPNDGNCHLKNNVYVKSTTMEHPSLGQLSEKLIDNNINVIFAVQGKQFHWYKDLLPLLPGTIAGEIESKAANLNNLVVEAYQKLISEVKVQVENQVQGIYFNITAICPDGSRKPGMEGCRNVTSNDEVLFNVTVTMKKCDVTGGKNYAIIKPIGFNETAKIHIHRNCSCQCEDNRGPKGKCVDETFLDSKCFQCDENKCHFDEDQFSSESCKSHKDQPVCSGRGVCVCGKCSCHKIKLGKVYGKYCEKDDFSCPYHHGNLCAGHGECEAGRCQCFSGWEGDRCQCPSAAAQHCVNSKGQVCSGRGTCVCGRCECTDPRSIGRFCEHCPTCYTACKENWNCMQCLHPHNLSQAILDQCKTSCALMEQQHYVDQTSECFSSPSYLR

B1: HuC6D4F12 scFv (scFv, V domains shown)
VH: QIQLVQSGAEVKKPGASVKISCKASGYTFTKYSMHWVRQAPGQGLEWVARINTETGEPTFADDFRGRFTVTLDTSTSTAYLEIRSLRSDDTAVYFCAIFYYGRDTWGQGTTLTVSS
VL: EIVMTQSPATLSVSPGERVTMSCKSSQSLLHSRSRKNYLAWYQQKPGQAPRLLIYWASTRESGVPARFSGSGSGTEFTLTISSVQSEDFAVYYCKQSYNLLSFGQGTVLEIK
notes: not shown: The scFv linker, the domain order, and the yeast-display partner and tags (vector pYD4)
For B1, the equilibrium dissociation constant (Kd) is 0.39 nM.

B2: C6D4 scFv (scFv, V domains shown)
VH: QIQLVQSGPELKKPGETVKISCKASGYTFTDYSMHWVKQAPGKGLKWVARINTETGEPTFADDFRGRFAVSLETSASTAYLQINNLKNEDTATYFCAIFYYGRDSWGQGTTLTVSS
VL: DIVMTQSPSSLAVSAGEKVTMSCKSSQSLLNSRTRKNYLAWYQQKPGQSPRLLIYWASTRESGVPDRFTGSGSGTDFTLTISSVQAEDLAVYYCKQSYNLLSFGAGTKLELK
notes: as for B1
Regarding B2, the equilibrium dissociation constant (Kd) was 7.25 nM.

For the origin of these results see patent publication US20230279119A1 (published 2023).
